The DeepSol protein solubility set

Assay: soluble on expression in E. coli; label from the status in PepcDB or PDB records

| Sequence | soluble on expression in E. coli |
| --- | --- |
| MSLKKTTWFAGRFPGYVSPLSSVALSVLAALCPLTSRGESYFNPAFLSADTASVADLSRFEKGNHQPPGIYRVDIWRNDEFVATQDIRFEAGAVGTGDKSGGLMPCFTPEWIKRLGVNTAAFPVSDKGVDTTCIHLPEKIPGAEVAFDFASMRLNISLPQASLLNSARGYIPPEEWDEGIPAALINYSFTGSRGTDSDSYFLSLLSGLNYGPWRLRNNGAWNYSKGDGYHSQRWNNIGTWVQRAIIPLKSELVMGDSNTGNDVFDSFGFRGARLYSSDNMYPDSLQGYAPTVRGIARTAAKLTIRQNGYVIYQSYVSPGAFAITDLNPTSSSGDLEVTVDEKDGSQQRYTVPYSTVPLLQREARVKYDLVAGDFRSGNSQQSSPFFFQGTVIAGLPAGLTAYGGTQLADRYRAVVVGAGRNLGDWGAVSVDVTHARSQLADDSTHQGQSLRFLYAKSLNNYGTNFQLLGYRYSTRGFYTLDDVAYRSMEGYDYEYDSDGRRHKVPVAQSYHNLRYSKKGRFQVNISQNLGDYGSLYLSGSQQNYWNTADTNTWYQLGYASGWQGISYSLSWSWSESVGSSGADRILAFNMSVPFSVLTGRRYARDTILDRTYATFNANRNRDGDNSWQTGVGGTLLEGRNLSYSVTQGRSSSNGYSGSASASWQATYGTLGVGYNYDRDQHDYNWQLSGGVVGHADGITFSQPLGDTNVLIKAPGAKGVRIENQTGVKTDWRGYAVMPYATVYRYNRVALDTNTMDNHTDVENNVSSVVPTEGALVRAAFDTRIGVRAIITARLGGRPLPFGAIVRETASGITSMVGDDGQIYLSGLPLKGELFIQWGEGKNARCIAPYALAEDSLKQAITIASATCIRPASEGGSHHHHHH | soluble |
| NGFDVREGRKLLVGGGSGIVSLYPIADQETDALISAKTRDELIFKDRFPESRRFIATDDGSDGFHGFAHELLQRINIDSYEAIYVCGPEQMMYKVLQVLKGRKVFVQFS | not soluble |
| MLKIGVLVSGRGSNLQAIIDAIESGKVNASIELVISDNPKAYAIERCKKHNVECKVIQRKEFPSKKEFEERMALELKKKGVELVVLAGFMRILSHNFLKYFPNKVINIHPSLIPAFQGLHAQKQAVEFGVKFSGCTVHIVDESVDAGPVIVQAVVPVLPEDDENTLADRILKWEHKILPQTVQWFAQDRIIIDGRKVIVKDATYGTLPVNPALEIF | soluble |
| VARADESLQQVVMAYFGVQFKSEQKAIALKAMQHIVQSFSLDNGPQNHDITHHTDNQGYENYIVVGYWRDPGAYCRWFRSTEVSHWWDSDERLNDGIGYFREIVIPRADQFETLYAFKEDLPGVGAVMDDISDDIQEHGYWGSARERF | not soluble |
| MSQKLKVVTIGGGSSYTPELLEGFIKRYHELPVSELWLVDVEGGKPKLDIIFDLCQRMIDNAGVPMKLYKTLDRREALKDADFVTTQLRVGQLPARELDERIPLSHGYLGQETNGAGGLFKGLRTIPVIFDIVKDVEELCPNAWVINFTNPAGMVTEAVYRHTGFKRFIGVCNIPIGMKMFIRDVLMLKDSDDLSIDLFGLNHMVFIKDVLINGKSRFAELLDGVASGQLKASSVKNIFDLPFSEGLIRSLNLLPCSYLLYYFKQKEMLAIEMGEYYKGGARAQVVQKVEKQLFELYKNPELKVKPKELEQRGGAYYSDAACEVINAIYNDKQAEHYVNIPHHGQIDNIPADWAVEMTCKLGRDGATPHPRITHFDDKVMGLIHTIKGFEIAASNAALSGEFNDVLLALNLSPLVHSDRDAELLAREMILAHEKWLPNFADCIAELKKAH | soluble |
| MHIISLLLENEPGALSRVVGLFSQRNYNIESLTVAPTEDPTLSRLTLTTVGHDEVIEQITKNLNKLIEVVKLVDL | soluble |
| MGSDKIHHHHHHDAGAPAFLSAGRVADGAYNLYGLDRRGRPLFHLPIPDRGHAAAAHPQRAEAVAFARRPGRFALVLNCVSGAEIARLSAPEGRHFYGHGAFDAEGRVLFTTENDYEAGQGRIGLWDAGAGYRRIGEVASGGVGPHDIRLMPDGQTLVVANGGVETHPDTGRVKLNLPVMQPNLSYLSLAGEVLEVVRMPPEHRMNSIRHLDLRADGLVAFAMQWQGEGTELRPVLGLHRRGTAPVAVTGNEAEMRAMNGYGGSVIFYDQGRRVAVSSPRGGIVQLSDVAAGRIIGGVAITDVCGLGVTGGGLVASSGSGVFTRVGGKEASRSEIAWDNHLVAVNRA | not soluble |
| MCENLYGEEYKMEILRLQKMMNNMTCGQMAKPLTMKDFQIHQALGKGAYGNVYRVRSLHDGKDYALKQIMISSKNEGIPQSVLREITVMKHLARKAHPNIISLKSVFHQLDPVRAILKINMIMERCDWDLHTFLRNIPRGVPEQQAKHVTAQIVRALDFLHTHSIIHRDLKPQNILLNRDQTVKLADFGLSKEYSNTTAFTTLVVTLWYRSPEVLLQSYYNSTVDMWALGCIVSEIYCRQPLFVGQNEAEQLTDIFKKMGTPVGKDWPSESVIARDSFPQYRPTNLKDLSPQMSKQAIEFVQQCLRYDHSKRLSARGALSHPFLKPAVATKSRVLKQINFNK | not soluble |
| MGSDKIHHHHHHMERRTILVTGASGFVGGALCRQLATLGSFAIRAASRDLGGASVAGIQAVTVADLSATTDWARALSGVDLVVHAAARVHVMKETASDSLAEFRRVNVDGTLNLARQAAAAGVRRFIFISSIKVNGESSQPGQPLRADDSPAPQDAYGVSKHEAEQGLRQLAAATGMEVVVIRPVLVYGPGVKANFHSMMRWLQRGVPLPFGAVCNRRSLVSLANLVDLVVTCIDHPRAANQTFLASDGDDVSLTQLLRALGLALGRPARLLPVPAGLLRGAVLLIGRRDLAQRLFGTLQVDIEKNRQLLGWYPPCTLEQGLNMTARSFLGARRP | not soluble |
| MLKFISLLGTSKYVPCNYFIKNREELKINDCCYVQKAILDILRQENVIPDKIIIFTTDEAHVSNWENNKWNNKGDKNDVQEIEDELQKRPGLKGELEKYKELTGADFKSVRIPNGIREEDLWEIFRTIFDEIDENDEIIFDVTHSFRYLPMLVFIVINYARVVKKCKLKSIYYGAFEVLGTPETVAKIPLEERNAPIFDLTSFVDLFDWTMGIDRYLNTGDVSVVHELTDIQIKRVNKEKLKFISKSEQGVDPKTLFMDSRQLRALSESMKNFSDVVFTCRGLELTRVACELKEKLREVTESASRQHIIPLMPVLEMMKERFDKFSKDNDYINIIETARWCADNKMYQQGLTILEEGLISFGCEKLGYENLSDKIDLDKRRKIGSYAFVVSNDFGRKSDNKKEKIPLLNIKSDVITDLLILIDEISSIRNDINHAGWRKDPSEAGAFGEQLKNFISRAEKIISPENFSTESDKCINNDSVDKEKKMLLILSHKLVPKQEEEARQRFGISKFLPMPNELHNKWSNIPPELEDLRDYLNDILEWIDLNAQEGDYALIQGDYGATFIAVNHCLAKGIIPVYSTTHRIVREEKNEDKVISVREFEHVILRKYEN | not soluble |
| SAPVGVEKKLLLGPNGPAVAAAGDLTSEEEEGQSLWSSILSEVSTRARSKLPSGKNILVFGEDGSGKTTLMTKLQGAEHGKKGRGLEYLYLSVHDEDRDDHTRCNVWILDGDLYHKGLLKFAVSAESLPETLVIFVADMSRPWTVMESLQKWASVLREHIDKMKIPPEKMRELERKFVKDFQDYMEPEEGCQGSPQRRGPLTSGSDEENVALPLGDNVLTHNLGIPVLVVCTKCDAVSVLEKEHDYRDEHLDFIQSHLRRFCLQYGAALIYTSVKEEKNLDLLYKYIVHKTYGFHFTTPALVVEKDAVFIPAGWDNEKKIAILHENFTTVKPEDAYEDFIVKPPVRKLVHDKELAAEDEQVFLMKQQSLLAKQPATPTRASESPARGPSGSPRTQGRGGPASVPSSSPGTSVKKPDPNIKNNAASEGVLASFFNSLLSKKTGSPGSPGAGGVQSTAKNSGQKTVLSNVQEELDRMTRKPDSMVTNSSTENEA | soluble |
| AYPHIFGNLGVFSLASWFSERDFLRFLNHHPLDKNSKVFIQVGTKEGDAVDDEFAPNMNQAYIDCTLHYYQSLLRTGHPMEHIDLHIMANEIHHEKYWANHFIEFLKFTLK | not soluble |
| MVLKRKGLLIILDGLGDRPIKELNGLTPLEYANTPNMDKLAEIGILGQQDPIKPGQPAGSDTAHLSIFGYDPYETYRGRGFFEALGVGLDLSKDDLAFRVNFATLENGIITDRRAGRISTEEAHELARAIQEEVDIGVDFIFKGATGHRAVLVLKGMSRGYKVGDNDPHEAGKPPLKFSYEDEDSKKVAEILEEFVKKAQEVLEKHPINERRRKEGKPIANYLLIRGAGTYPNIPMKFTEQWKVKAAGVIAVALVKGVARAVGFDVYTPEGATGEYNTNEMAKAKKAVELLKDYDFVFLHFKPTDAAGHDNKPKLKAELIERADRMIGYILDHVDLEEVVIAITGDHSTPCEVMNHSGDPVPLLIAGGGVRTDDTKRFGEREAMKGGLGRIRGHDIVPIMMDLMNRSEKFGA | soluble |
| AIAAELGLNEHHQNEVINYMRFARSKRGLRLKTVDSCFQDLKESRLVEDTFTIDEVSEVLNGLQAVVHSEVESELINTAYTNVLLLRQLFAQAEKWYLKLQTDISELENQELLEQVAEFEKAEITSSNKKPILDVTKPKLAPLNEGGTAELLNEEILRLQEENEKLKSRLKTIEIQATNALDEKSKLEKALQDLQLDQGNQKDFIKAQDLSNLENTVAALKSEFQKTLNDKTENQKSLEENLATAKHDLLRVREQLHMAEKELEKKFQQTAAYRNMKEILTKKNDQIKDLRKRLAQYEPED | soluble |
| MIRLAHADDLLILQEIERAAGQAFRALGMDSIADDEPLSIDELNSYATAGRAWVSVDGLDYPVAYLLADIVDGAGHVEQVSVHPDQAHQGLGRELLHAARVWTRGHGMQRQTLSTFRDVPWNAPYYRRLGFDVLDAGSWGPQLAHLMEHEAELGLTRWPRVAMWRPAVPPK | soluble |
| NSNNKRAPYWTNTEKMEKRLHAVPAANTVKFRCPAGGNPMPTMRWLKNGKEFKQEHRIGGYKVRNQHWSLIMESVVPSDKGNYTCVVENEYGSINHTYHLDVVERSPHRPILQAGLPANASTVVGGDVEFVCKVYSDAQPHIQWIKHVEKNGSKYGPDGLPYLKVLKAAGVNTTDKEIEVLYIRNVTFEDAGEYTCLAGNSIGISFHSAWLTVLPAPGRE | soluble |
| MFRLSALYRYPIKSSAAESLERVALDALGVVGDRRWMAVDTETGRFFTQRLLPQLGRIQARWAAPEVLRLNAPGMSELSLEVPAADANLRGVTVWRDTLQAPDAGDAAADWLTRFLGRP | not soluble |
| MSLYSGYGYFYRGKFMKPFESHNKQLKILRRRGMEVPSSAKRDLENENYYNIINGYKDLFLELDVNGNFLVPDKYKQGTHFKEVFSLYKLDRKFRNVLLEYLLVFETHIKSRISYYFSEKYREPHSYLYFKNYSSDTSKTDSIVKMVATFSSVMSNRKNKPLKHYINTHNGVPLWILVNYLTLGNVSKMYSNLDDDLRLEVAKDYKRKLERDYKTRVQITPSDVDSILQQAHMFRNVCAHEERLYDYKIDRAKSRANIFANYNKIYDKEYVPTMNGSYVFDLLISLCLFLNKHDYIKLVKNMDKLISNYSHSFYTITIDDLYTKMNFPDQTKILDMLEGHHHHHH | soluble |
| MGSDKIHHHHHHMQIEFYRRKYGRGCRPHLSLCIEGQHYHVDTSPADYGMNLITHAHTDHYGQRNMDNSRAVASRESAAILEACTGKVFSGVTFEVGSRIRLSDTKIKTYPTYHMHGSAAFYFQDSDILITGDVKDYSKLPKCKILVTEATYGHPSHIFEEEVEKLLKVASSNKAVFGAYPIGKAQRVAEILSKDGFGFSAEEKIARICSAVGLKPSDGPLIASPRNLPLYGGGYILTAHKFYRWPRITLSDHLDYRGILEMIDHCEPEEVLFYHGKPSKRLLEHLKNEGIVCRTLNDLPVMK | not soluble |
| AARRALIVLAHSEKTSFNYAMKEAAVEALKKRGWEVLESDLYAMNFNPIISRNDITGELKDSKNFQYPSESSLAYKEGRLSPDIVAEHKKLEAADLVIFQFPLQWFGVPAILKGWFERVLVAGFAYTYAAMYDNGPFQNKKTLLSITTGGSGSMYSLQGVHGDMNVILWPIQSGILRFCGFQVLEPQLVYSIGHTPPDARMQILEGWKKRLETVWEETPLYFAPSSLFDLNFQAGFLLMKEVQEEQKKNKFGLSVGHHLGKSIPADNQIKARK | soluble |
